Experimental findings from PMC13282566, “Regulation of Citron kinase by CDK1 and Aurora B regulates midbody formation and stability” (Journal of Cell Science, 2026) are described below.

The target of one test is KIF14 901-1648 (UniProt Q15058). Kind of test: GST pull-down of MBP-tagged fragment, western blot. The settings on record: reference: fragment incubated without CDK1/cyclin B; sites S440. (In general: A western blot detects proteins with antibodies after separation by electrophoresis.)
The target in another test is T1, GST::KIF14(901-1648) (UniProt Q15058 901-1648).
T1 construct: Cloned into pDEST15; source: E. coli, purified (glutathione sepharose 4B), kept on beads; not shown: GST, N-terminal, kept
T1 sequence (looked up): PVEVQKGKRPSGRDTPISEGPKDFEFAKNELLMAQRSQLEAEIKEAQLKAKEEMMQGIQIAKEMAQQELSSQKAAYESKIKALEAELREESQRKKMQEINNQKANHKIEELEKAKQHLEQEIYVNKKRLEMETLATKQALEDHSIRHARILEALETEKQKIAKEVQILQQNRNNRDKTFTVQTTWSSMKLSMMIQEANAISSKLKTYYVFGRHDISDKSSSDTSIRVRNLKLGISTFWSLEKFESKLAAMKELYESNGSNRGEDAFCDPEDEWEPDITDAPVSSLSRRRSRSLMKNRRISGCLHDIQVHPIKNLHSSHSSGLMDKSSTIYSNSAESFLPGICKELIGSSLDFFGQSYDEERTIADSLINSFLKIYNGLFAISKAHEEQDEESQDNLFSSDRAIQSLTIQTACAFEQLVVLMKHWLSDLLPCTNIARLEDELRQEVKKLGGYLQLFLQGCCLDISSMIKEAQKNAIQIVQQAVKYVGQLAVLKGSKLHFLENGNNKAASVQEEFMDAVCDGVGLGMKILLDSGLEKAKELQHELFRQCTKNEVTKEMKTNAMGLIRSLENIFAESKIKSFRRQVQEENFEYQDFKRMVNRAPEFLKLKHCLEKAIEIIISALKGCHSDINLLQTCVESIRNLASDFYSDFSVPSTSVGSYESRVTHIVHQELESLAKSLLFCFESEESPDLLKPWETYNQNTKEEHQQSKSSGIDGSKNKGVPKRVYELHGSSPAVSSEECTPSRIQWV
Kind of test: pull-down; GST-tagged KIF14 or MKLP1 fragment on glutathione sepharose beads, purified MBP::CIT-K fragment in solution (with or without prior incubation with CDK1/cyclin B or AURKB); NET-N+ buffer (50 mM Tris-HCl pH 7.4, 150 mM NaCl, 5 mM EDTA, 0.2% NP-40), 60 min at 4°C; washes with 250 mM NaCl; western blot. The note with it: both partners purified.

“Citron kinase (CIT-K) 420-585 (from UniProt O14578-4) fragment incubated with CDK1/cyclin B”: the “binding against the reference” value with KIF14 901-1648 is on record as “same”.

B1: MBP::CIT-K(420-585) (domain or fragment, human, UniProt O14578-4 420-585, looked up)
chain: SYSKALGILGRSESVVSGLDSPAKTSSMEKKLLIKSKELQDSQDKCHKMEQEMTRLHRRVSEVEAVLSQKEVELKASETQRSLLEQDLATYITECSSLKRSLEQARMEVSQEDDKALQLLHDIREQSRKLQEIKEQEYQAQVEEMRLMMNQLEEDLVSARRRSDLY
notes: contains S440; numbering of UniProt O14578-4; Cloned into pKM596; also called MBP::CC1 fragment containing S440; source: E. coli, purified (amylose resin, eluted with maltose)
As to B1, in the test with GST::KIF14(901-1648), the binding result was “binds”.

B2: MBP::CIT-K(420-585) phosphorylated by CDK1/cyclin B (pS440) (domain or fragment, human, UniProt O14578-4 420-585, looked up)
chain: B1 chain
modifications: phosphoserine at 440 (in vitro by CDK1/cyclin B, detected with the CIT-K pS440 antibody)
notes: numbering of UniProt O14578-4; source: E. coli, purified (amylose resin), then incubated with recombinant CDK1/cyclin B
Regarding B2, in the test with GST::KIF14(901-1648), the binding result is on record as “binds”.
